Assay results taken from paper PMC12345223.

T1: ChCpc1 (Cochliobolus heterostrophus C4 (Tox1+, …, UniProt M2T2C6 1-465))
T1 sequence: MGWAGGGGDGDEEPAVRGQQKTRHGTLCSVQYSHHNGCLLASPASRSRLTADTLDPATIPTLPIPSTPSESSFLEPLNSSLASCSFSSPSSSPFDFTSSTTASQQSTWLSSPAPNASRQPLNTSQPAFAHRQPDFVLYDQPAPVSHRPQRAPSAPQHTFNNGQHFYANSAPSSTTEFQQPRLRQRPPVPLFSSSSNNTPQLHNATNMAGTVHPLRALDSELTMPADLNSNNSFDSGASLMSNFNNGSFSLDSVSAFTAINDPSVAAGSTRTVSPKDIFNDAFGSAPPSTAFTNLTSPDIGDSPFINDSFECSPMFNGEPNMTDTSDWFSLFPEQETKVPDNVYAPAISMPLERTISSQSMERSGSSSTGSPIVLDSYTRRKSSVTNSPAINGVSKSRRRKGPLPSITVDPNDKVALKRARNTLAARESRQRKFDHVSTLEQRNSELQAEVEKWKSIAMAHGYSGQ

T2: ChAtf1 (Cochliobolus heterostrophus C4 (Tox1+, …, UniProt M2TIN4 1-567))
T2 sequence: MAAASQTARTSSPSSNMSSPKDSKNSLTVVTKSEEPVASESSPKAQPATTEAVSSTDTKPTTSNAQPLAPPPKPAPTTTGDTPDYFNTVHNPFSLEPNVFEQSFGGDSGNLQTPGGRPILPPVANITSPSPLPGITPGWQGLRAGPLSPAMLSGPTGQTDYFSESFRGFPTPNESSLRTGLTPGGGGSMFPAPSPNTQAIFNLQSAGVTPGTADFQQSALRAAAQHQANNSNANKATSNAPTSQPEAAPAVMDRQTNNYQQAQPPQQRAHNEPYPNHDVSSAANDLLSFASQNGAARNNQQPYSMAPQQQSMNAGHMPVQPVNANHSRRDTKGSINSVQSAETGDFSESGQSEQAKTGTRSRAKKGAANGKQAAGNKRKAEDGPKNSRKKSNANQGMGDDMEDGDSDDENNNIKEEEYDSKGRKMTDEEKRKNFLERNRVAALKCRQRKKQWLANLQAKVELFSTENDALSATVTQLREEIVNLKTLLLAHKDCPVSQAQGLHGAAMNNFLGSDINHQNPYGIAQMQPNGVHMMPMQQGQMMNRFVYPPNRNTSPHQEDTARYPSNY

B1: ChATG8 promoter probe (dsDNA)
DNA 1: GGAGAGCGTGAAGGAGAGAGACGGGATGAGTCAAAGTACCCAGGTAGCCAGGTCATGGGA
DNA 2: TCCCATGACCTGGCTACCTGGGTACTTTGACTCATCCCGTCTCTCTCCTTCACGCTCTCC
B2: ChATG7 promoter probe (dsDNA)
DNA 1: TCCCAAATGTCGGTCGTGACCCATCGTTCCCTCCATCTCA
DNA 2: TGAGATGGAGGGAACGATGGGTCACGACCGACATTTGGGA
B3: ChARG1 promoter probe (dsDNA)
DNA 1: AAGACAGTGGTGGAGATCAAGTTGGATGAGTAACTTGGCGCTGCACTCGATTCGCGTGTT
DNA 2: CCAACTTGATCTCCACCACTGTCTT
B4: ChARG4 promoter probe (dsDNA)
DNA 1: CATTGGCGTTTGGGACTGAATTACAATGAGTAATGAAATAACTCACACCACAAAGCAGTA
DNA 2: TACTGCTTTGTGGTGTGAGTTATTTCATTACTCATTGTAATTCAGTCCCAAACGCCAATG
B5: ChATG9 promoter probe (dsDNA)
DNA 1: GCGGCGCGTCACCTGCATGAGTCCCATGTCGATGAGGCGCT
DNA 2: AGCGCCTCATCGACATGGGACTCATGCAGGTGACGCGCCGC
B6: ChATG5 promoter probe (dsDNA)
DNA 1: CAGCTATGTTGCGTTAGTAAGTCACCCATCTACGCTGTCGC
DNA 2: GCGACAGCGTAGATGGGTGACTTACTAACGCAACATAGCTG

Assays:
ChCpc1 [1] = molecular target: T1, ChCpc1; test: EMSA; Light Shift Chemiluminescent EMSA Kit (Beyotime), 20 min at 25°C; 6.5% polyacrylamide gel, 0.5x TBE; binding buffer, salt and pH not stated; conditions: protein: recombinant; tags: His (pET-32a); chain copies: 2; label: biotin (on forward strand); blunt
ChAtf1 = molecular target: T2, ChAtf1; test: EMSA; ChAtf1 alone; Light Shift Chemiluminescent EMSA Kit (Beyotime), 20 min at 25°C; 6.5% polyacrylamide gel, 0.5x TBE; binding buffer, salt and pH not stated; conditions: protein: recombinant; tags: His (pET32a); chain copies: 2; label: biotin (on forward strand); blunt
ChCpc1 [2] = molecular target: T1, ChCpc1; test: EMSA; 100x unlabeled competitor prevents binding; Light Shift Chemiluminescent EMSA Kit (Beyotime), 20 min at 25°C; 6.5% polyacrylamide gel, 0.5x TBE; binding buffer, salt and pH not stated; conditions: protein: recombinant, tags: His (pET-32a), chain copies: 2, label: biotin (on forward strand)
ChCpc1 [3] = molecular target: T1, ChCpc1; test: EMSA; strongest of the four ATG probes; Light Shift Chemiluminescent EMSA Kit (Beyotime), 20 min at 25°C; 6.5% polyacrylamide gel, 0.5x TBE; binding buffer, salt and pH not stated; conditions: protein: recombinant; tags: His (pET-32a); chain copies: 2; label: biotin (on forward strand); blunt

Binder | binding result (ChCpc1 [1]) | binding result (ChAtf1) | other results
B1 | binds | no binding | –
B2 | binds | – | –
B3 | – | – | binding result (ChCpc1 [2]; printed reverse oligo (25 nt) pairs only with nt 1-25 of the 60-nt forward strand, possibly printed incomplete): binds
B4 | – | no binding | binding result (ChCpc1 [2]; blunt): binds
B5 | – | – | binding result (ChCpc1 [3]): binds
B6 | binds | – | –
